What was measured:
[1] = target: caprine CXCR3 (caprine (goat)) (UniProt Q867B2); assay: cell-based or functional assay
[2] = target: ovine CXCR3 on peripheral blood mononuclear cells (ovine); assay: cell-based or functional assay

UniProt Q867B2, sequence (Q867B2 whole entry): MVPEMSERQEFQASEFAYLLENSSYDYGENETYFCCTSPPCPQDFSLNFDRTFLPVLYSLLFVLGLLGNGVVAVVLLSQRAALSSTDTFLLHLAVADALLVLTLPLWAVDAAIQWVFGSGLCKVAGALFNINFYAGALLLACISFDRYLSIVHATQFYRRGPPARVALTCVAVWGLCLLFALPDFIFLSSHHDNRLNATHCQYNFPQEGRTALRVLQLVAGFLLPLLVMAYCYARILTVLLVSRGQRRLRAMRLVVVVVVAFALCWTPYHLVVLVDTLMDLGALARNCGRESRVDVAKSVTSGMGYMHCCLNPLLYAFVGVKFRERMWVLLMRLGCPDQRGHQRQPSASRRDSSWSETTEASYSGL

With “recombinant caprine IP-10 (N-terminal histidine tag, mature region, expressed from pET-14b-cIP-10 in E. coli BL21-SI) (ligand)” as the substance, how does the chemotaxis of HTS-1 cells transfected with caprine CXCR3 [1] read?
Its chemotaxis of HTS-1 cells transfected with caprine CXCR3 is 1 to 20 ng/mL.

What about the chemotaxis of KU-1 cells transfected with caprine CXCR3 (modified Boyden chamber) [1] of the same substance?
Its chemotaxis of KU-1 cells transfected with caprine CXCR3 (modified Boyden chamber) is 1 to 20 ng/mL.

What about the chemotaxis of ovine PBMCs [2] of the same substance?
The chemotaxis of ovine PBMCs was 0.2 to 5 ng/mL.

Reference: patent US20060234925A1
